Test results taken from the supplement of paper PMC9112550, “Optimization of the antimicrobial peptide Bac7 by deep mutational scanning” (BMC Biology, 2022).

system: Escherichia coli TOP10; test: shrunken log2 fold change of peptide-encoding DNA abundance (4.5 h post-induction vs induction); higher = less antimicrobial activity (less host growth inhibition); conditions: time post-induction: 4.5 h; library: site-saturation at positions 5, 18, 19, 20
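Note: peptides expressed intracellularly from a pBAD plasmid library in pooled LB shake-flask culture, induced with 0.3% L-arabinose, DNA abundance read by NGS, three biological replicates, DESeq2 with apeglm shrinkage.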

Sequence	shrunken log2 fold change
RRIRDRPPRLPRPRPRPYEFPRP	0.047
RRIRLRPPRLPRPRPRPMRMPRP	-0.076
RRIRRRPPRLPRPRPRPYMAPRP	-0.69
RRIRVRPPRLPRPRPRPRDPPRP	0.617
RRIRLRPPRLPRPRPRPCLWPRP	-0.000705
RRIRTRPPRLPRPRPRPAYTPRP	-0.149
RRIRERPPRLPRPRPRPSPNPRP	-0.328
RRIRGRPPRLPRPRPRPRRFPRP	0.402
RRIRCRPPRLPRPRPRPERTPRP	0.766
RRIRTRPPRLPRPRPRPVKLPRP	0.0303
RRIRCRPPRLPRPRPRPPIFPRP	-0.197
RRIRARPPRLPRPRPRPFRFPRP	0.0596
RRIRYRPPRLPRPRPRPLPWPRP	-0.132
RRIRGRPPRLPRPRPRPARGPRP	0.915
RRIRCRPPRLPRPRPRPNDGPRP	-0.00783
RRIRVRPPRLPRPRPRPNQMPRP	-0.092
RRIRARPPRLPRPRPRPFGYPRP	0.167
RRIRPRPPRLPRPRPRPGAVPRP	0.379
RRIRNRPPRLPRPRPRPMTYPRP	-0.0655
RRIRTRPPRLPRPRPRPCRQPRP	-0.303
RRIRHRPPRLPRPRPRPYALPRP	-0.078
RRIRYRPPRLPRPRPRPISPPRP	0.0589
RRIRTRPPRLPRPRPRPELFPRP	0.039
RRIRQRPPRLPRPRPRPQIIPRP	-0.0763
RRIRYRPPRLPRPRPRPGEPPRP	-0.0235

Sequence	shrunken log2 fold change
RRIRPRPPRLPRPRPRPTIMPRP	-0.335
RRIRCRPPRLPRPRPRPCDAPRP	-0.466
RRIRIRPPRLPRPRPRPPLFPRP	0.0406
RRIRQRPPRLPRPRPRPAAYPRP	-0.169
RRIRCRPPRLPRPRPRPPFWPRP	0.649
RRIRTRPPRLPRPRPRPHGHPRP	-0.136
RRIRERPPRLPRPRPRPNEPPRP	-0.129
RRIRPRPPRLPRPRPRPPPMPRP	0.52
RRIRRRPPRLPRPRPRPFFEPRP	0.18
RRIRFRPPRLPRPRPRPAICPRP	0.00851
RRIRFRPPRLPRPRPRPMYKPRP	-0.662
RRIRIRPPRLPRPRPRPPMGPRP	0.0153
RRIRKRPPRLPRPRPRPLMRPRP	1.35
RRIRARPPRLPRPRPRPNRAPRP	-0.0385
RRIRPRPPRLPRPRPRPELCPRP	0.277
RRIRHRPPRLPRPRPRPRSPPRP	0.243
RRIRKRPPRLPRPRPRPDIRPRP	0.0731
RRIRKRPPRLPRPRPRPVLTPRP	0.342
RRIRNRPPRLPRPRPRPWCFPRP	-0.472
RRIRERPPRLPRPRPRPHPSPRP	-0.222
RRIRPRPPRLPRPRPRPLRNPRP	0.673
RRIRGRPPRLPRPRPRPTFKPRP	0.538
RRIRTRPPRLPRPRPRPAMPPRP	0.131
RRIRRRPPRLPRPRPRPDHAPRP	0.0467
RRIRCRPPRLPRPRPRPRCDPRP	-0.047

Sequence	shrunken log2 fold change
RRIRERPPRLPRPRPRPIALPRP	-0.0132
RRIRHRPPRLPRPRPRPKRQPRP	-0.0409
RRIRWRPPRLPRPRPRPWPKPRP	0.322
RRIRIRPPRLPRPRPRPCPKPRP	-0.564
RRIRFRPPRLPRPRPRPKFDPRP	-0.0676
RRIRDRPPRLPRPRPRPEYQPRP	0.637
RRIRYRPPRLPRPRPRPWYQPRP	-3.18
RRIRVRPPRLPRPRPRPCWMPRP	-0.46
RRIRPRPPRLPRPRPRPMEEPRP	-0.0433
RRIRCRPPRLPRPRPRPKYAPRP	-0.0494
RRIRWRPPRLPRPRPRPIELPRP	-0.0796
RRIRMRPPRLPRPRPRPPLFPRP	0.919
RRIRTRPPRLPRPRPRPGAIPRP	-0.0669
RRIRWRPPRLPRPRPRPGVKPRP	0.505
RRIRGRPPRLPRPRPRPAAHPRP	0.807
RRIRKRPPRLPRPRPRPARTPRP	0.476
RRIRKRPPRLPRPRPRPIQPPRP	-0.00952
RRIRTRPPRLPRPRPRPFPKPRP	-0.112
RRIRGRPPRLPRPRPRPHNPPRP	-0.0429
RRIRNRPPRLPRPRPRPGKLPRP	-0.0284
RRIRIRPPRLPRPRPRPLGYPRP	-0.303
RRIRDRPPRLPRPRPRPREFPRP	-0.0261
RRIRMRPPRLPRPRPRPYCQPRP	-0.0783
RRIRKRPPRLPRPRPRPCLNPRP	0.00932
RRIRTRPPRLPRPRPRPNSPPRP	-0.221

Sequence	shrunken log2 fold change
RRIRFRPPRLPRPRPRPDKPPRP	0.0269
RRIRMRPPRLPRPRPRPETLPRP	-0.0225
RRIRFRPPRLPRPRPRPNHRPRP	-0.306
RRIRWRPPRLPRPRPRPPVDPRP	0.494
RRIRTRPPRLPRPRPRPACTPRP	0.212
RRIRWRPPRLPRPRPRPHRRPRP	-0.0988
RRIRMRPPRLPRPRPRPGGTPRP	0.722
RRIRARPPRLPRPRPRPLSQPRP	0.263
RRIRSRPPRLPRPRPRPRRHPRP	0.323
RRIRRRPPRLPRPRPRPNKPPRP	0.101
RRIRARPPRLPRPRPRPTRPPRP	0.764
RRIRRRPPRLPRPRPRPDIGPRP	-0.0303
RRIRDRPPRLPRPRPRPYEAPRP	-0.108
RRIRKRPPRLPRPRPRPQWMPRP	-0.307
RRIRIRPPRLPRPRPRPWDWPRP	0.0472
RRIRNRPPRLPRPRPRPIHYPRP	-0.285
RRIRVRPPRLPRPRPRPVYPPRP	-0.389
RRIRHRPPRLPRPRPRPQMYPRP	-0.0219
RRIRERPPRLPRPRPRPKHFPRP	-0.248
RRIRARPPRLPRPRPRPYKYPRP	-0.227
RRIRHRPPRLPRPRPRPNSEPRP	-0.795
RRIRMRPPRLPRPRPRPPFSPRP	0.239
RRIRVRPPRLPRPRPRPWTFPRP	-0.0163
RRIRERPPRLPRPRPRPEHWPRP	0.0984
RRIRYRPPRLPRPRPRPTAEPRP	0.0226

Sequence	shrunken log2 fold change
RRIRVRPPRLPRPRPRPFGRPRP	0.0302
RRIRPRPPRLPRPRPRPNNGPRP	-0.335
RRIRRRPPRLPRPRPRPNRHPRP	-0.00811
RRIRCRPPRLPRPRPRPLWFPRP	-0.315
RRIRRRPPRLPRPRPRPQNFPRP	-0.149
RRIRMRPPRLPRPRPRPQPLPRP	0.224
RRIRYRPPRLPRPRPRPRKSPRP	0.117
RRIRYRPPRLPRPRPRPFNSPRP	-0.169
RRIRIRPPRLPRPRPRPRWHPRP	0.139
RRIRKRPPRLPRPRPRPPWHPRP	0.349
RRIRWRPPRLPRPRPRPQQVPRP	-0.00531
RRIRPRPPRLPRPRPRPCFEPRP	0.0232
RRIRCRPPRLPRPRPRPPQAPRP	0.735
RRIRVRPPRLPRPRPRPYDCPRP	-0.9
RRIRPRPPRLPRPRPRPWTAPRP	-0.305
RRIRGRPPRLPRPRPRPMRGPRP	1.09
RRIRLRPPRLPRPRPRPLSSPRP	-0.0447
RRIRKRPPRLPRPRPRPSMPPRP	0.0159
RRIRHRPPRLPRPRPRPDSPPRP	0.0316
RRIRQRPPRLPRPRPRPIPPPRP	0.0581
RRIRKRPPRLPRPRPRPFLPPRP	-0.0487
RRIRERPPRLPRPRPRPHPQPRP	-0.103
RRIRPRPPRLPRPRPRPDYFPRP	-0.503
RRIRFRPPRLPRPRPRPSDFPRP	-0.487
RRIRMRPPRLPRPRPRPRNMPRP	0.281

Sequence	shrunken log2 fold change
RRIRHRPPRLPRPRPRPSHFPRP	-0.0233
RRIRFRPPRLPRPRPRPDWTPRP	0.039
RRIRDRPPRLPRPRPRPKWQPRP	0.276
RRIRNRPPRLPRPRPRPDVDPRP	0.0446
RRIRRRPPRLPRPRPRPYHSPRP	-0.017
RRIRMRPPRLPRPRPRPMTGPRP	0.0472
RRIRCRPPRLPRPRPRPDYTPRP	-0.442
RRIRERPPRLPRPRPRPDVVPRP	0.015
RRIRCRPPRLPRPRPRPPYDPRP	-0.0699
RRIRYRPPRLPRPRPRPDDAPRP	-0.199
RRIRPRPPRLPRPRPRPIANPRP	-0.12
RRIRGRPPRLPRPRPRPEWDPRP	1.56
RRIRCRPPRLPRPRPRPCCSPRP	-0.321
RRIRIRPPRLPRPRPRPVFFPRP	-0.107
RRIRARPPRLPRPRPRPNLFPRP	-0.0329
RRIRWRPPRLPRPRPRPYYGPRP	-0.0686
RRIRMRPPRLPRPRPRPVHTPRP	0.213
RRIRKRPPRLPRPRPRPNQDPRP	-0.184
RRIRMRPPRLPRPRPRPQYHPRP	-0.299
RRIRPRPPRLPRPRPRPHLIPRP	-0.287
RRIRVRPPRLPRPRPRPLDDPRP	0.00726
RRIRTRPPRLPRPRPRPMVAPRP	0.0166
RRIRSRPPRLPRPRPRPVIAPRP	0.053
RRIRWRPPRLPRPRPRPMNHPRP	-0.426
RRIRHRPPRLPRPRPRPRDLPRP	-0.0495
